Data: patent US20180022805A1

Target: pre-B cell receptor (pre-BCR) on the surface of live BCP-ALL cells (human) (UniProt P15814)
Assay: single particle tracking with hidden Markov model (Viterbi plot), one receptor pair on 697 cells

Sequence of pre-B cell receptor (pre-BCR) on the surface of live BCP-ALL cells (chain): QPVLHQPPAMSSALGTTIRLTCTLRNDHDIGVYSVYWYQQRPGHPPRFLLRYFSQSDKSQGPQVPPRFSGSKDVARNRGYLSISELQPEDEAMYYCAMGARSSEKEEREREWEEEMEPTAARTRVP
Sequence of pre-B cell receptor (pre-BCR) on the surface of live BCP-ALL cells (P15814 38-213): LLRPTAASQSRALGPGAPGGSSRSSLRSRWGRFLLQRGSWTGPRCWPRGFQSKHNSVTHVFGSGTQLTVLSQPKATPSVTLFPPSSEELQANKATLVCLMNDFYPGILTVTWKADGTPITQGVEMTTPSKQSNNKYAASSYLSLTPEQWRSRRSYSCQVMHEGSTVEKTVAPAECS
Sequence of pre-B cell receptor (pre-BCR) on the surface of live BCP-ALL cells (P11912 33-226): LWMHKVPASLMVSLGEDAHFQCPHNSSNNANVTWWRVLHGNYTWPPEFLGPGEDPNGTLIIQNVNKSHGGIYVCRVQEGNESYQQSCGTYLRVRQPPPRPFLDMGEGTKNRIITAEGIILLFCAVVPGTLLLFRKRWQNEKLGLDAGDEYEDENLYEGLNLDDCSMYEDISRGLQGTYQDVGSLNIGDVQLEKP
Sequence of pre-B cell receptor (pre-BCR) on the surface of live BCP-ALL cells (P40259 29-229): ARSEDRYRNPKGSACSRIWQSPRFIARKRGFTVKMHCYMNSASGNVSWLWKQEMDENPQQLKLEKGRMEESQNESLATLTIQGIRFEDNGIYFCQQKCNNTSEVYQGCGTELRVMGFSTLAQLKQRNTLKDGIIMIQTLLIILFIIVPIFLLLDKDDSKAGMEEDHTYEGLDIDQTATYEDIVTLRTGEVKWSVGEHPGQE

homo-interaction lifetime: < 3 s
Substance: pre-B cell receptor (pre-BCR) on the surface of live BCP-ALL cells (from UniProt P15814 38-213; P11912 33-226; P40259 29-229)
